{"source": "patent US20230348572A1", "molecular_target": "RBD (amino acids 340-538 NITN.GPKK) expressed on the surface of MDCK-SIAT1 cells (SARS-CoV-2) (UniProt P0DTC2)", "data": [{"substance": "H11-D4-Fc (Fc fusion)", "values": [{"measurement": "IC50", "value": 28, "unit": "nM"}]}]}
